Results published in the supplement of paper PMC12764529.
± gives the half width of the 95% confidence interval.

Experiment: folding stability dG unfold from chymotrypsin proteolysis; higher = more stable
Outline: (§1)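 Sequencing followed digestion of designed mini-proteins with trypsin and chymotrypsin, each at 11 concentrations in threefold dilutions together with a no-protease condition. The mini-proteins were under 80 residues, had no cysteine, sat in a PA-tagged cDNA display construct, and were kept only if AlphaFold2 dimer inter-PAE was above 15. From the counts, Bayesian fitting gave K50, and unfolding free energy was derived against a sequence-predicted unfolded-state K50 and a shared folded-state K50, per protease or combined.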

Row | Sequence | folding stability dG unfold [kcal/mol]
1 | SIVIRLPDGKPLMIQLTMYYPPDNDKIEIPVEIYDGGKPRTFEHEIPPGDNKPVTFSLHIPLPPGAYIKISA [r9_973_TrROS] | 2.45 ± 0.14
2 | SAGGSAGGSNKLVKELAKDPNIKSIFVDTKNKKVYILTDNYLIVIDKNGKIEKIEPISPEKLKSAGGSAGGS [r12_895_TrMRF] | 1.26 ± 0.15
3 | SASKKPKLIIVDIVIKPEELKKMKPEELIEKILKELGIPKEKDVKIDLFLEPVELDGEEYYIIPALITNSAG [r14_334_TrMRF] | 1.08 ± 0.14
4 | SDKIIIPIYLPPGQDPDEIKNEIKWFARELWDKLGLPPNVKVEIEPRPYPEGYRRYMITIRLGGKEITIWSA [r9_776_TrROS] | 3.6 ± 0.053
5 | SAGGSAGGSANRKVIQFDSPEEILEAIDEAPEDDPVIIEWHDPDGGEPWWIKFDGDEIELIMSAGGSAGGSA [r18_407_TrROS] | -0.277 ± 0.41
6 | SAGGSAGGSALPTSPTYAVVKVPDKYYIVKTKVGDIIFIPDENGIPVPVKVEPFYPIAPEALSAGGSAGGSA [r18_244_TrMRF] | -0.515 ± 0.4
7 | SAGGSAGGSMYKVEIEIETSPEGGITIKVTIIPPDGSVIEGNLTPEEVAKRFGFPPPEILELLSAGGSAGGS [r20_235_JUSTAS] | 3.03 ± 0.062
8 | SAGGSAGGSAGLAEKLRDEIRESIKGPDGLEVPDDVELLSIDVPEDSAFVEVRFPADLPVSAGGSAGGSAGG [r17_519_TrMRF] | 0.233 ± 0.02
9 | SAGGMKIVSVEFDEETGEVYVKIEVPTPEELEALKKLPGEVRIVDKETGEVKVIKVKSIEELLELLKKSAGG [r13_604_TrROS_Hall] | 2.18 ± 0.071
10 | SAGGSAGGKEVKIEIYDSDDGILLVEVPDLDDAVEAVEKLGVELELVPYDPEKGRLLLRLRIPGSAGGSAGG [r6_510_TrMRF] | 0.8 ± 0.2
11 | SAGGSAGGSAGGEIKVEVVPVDGKLRVKVTLEDGEKIEIEVPENTTLDELKKLAEELAKKSAGGSAGGSAGG [r7_265_TrROS_Hall] | 2.12 ± 0.077
12 | SAGGSAGGMKATFHPGPGRFPLGDKEYEVDLIYVTVTLPNGVPRVFVLTPDEVEELLPDLELEGSAGGSAGG [r6_561_TrMRF] | 1.04 ± 0.071
13 | SAGGSSLTTPDGVKVEVYENPENNTIYVFEKKPDGTYTLKTLTKEGDKVTEVSTKTIKSNEKEKLLSAGGSA [r2_336_JUSTAS] | 1.81 ± 0.081
14 | SAGGMMYLIKVDTKEELKELAEAPGAKIVEEKEVNGKLYLLIEFPPGVTKIKIDVETRKIVEIEKLPSAGGS [r8_251_TrROS_Hall] | 1.58 ± 0.15
15 | SAGGSAGGSKNGEPPPVPTITMRFKDPDKIRKLNKKAGLPIEHDPGNGYITFPYRQIDKILKASAGGSAGGS [r12_325_TrROS] | 5.86 ± 0.32
16 | SAGGSSPASVRTSQTTVTDPATGRTRSVTVTTLPDGTTVSTFDSPGGSLVTTTTTPDGTTTTVTADSAGGSA [r2_109_JUSTAS] | 1.38 ± 0.022
17 | SAGGPVETPGPHPLRPVPVVEPKKVVVTYPDLSPEEAAALAAELEAQGATTSFDPATGTLTVTLTGLSAGGS [r16_765_JUSTAS] | 3 ± 0.038
18 | SAGGSAGGSAGGITPEYVERARKEAQDQYPPGKEREIIIRNPDNGKEITIRYTPDKIEIMSAGGSAGGSAGG [r7_45_TrROS] | -0.289 ± 0.16
19 | SAGGSAGGSAKIRLIFKTEEEARKAIEALLPEGAKAKIKVEKRKDGKKYVVVEIEFKEEEESAGGSAGGSAG [r3_87_TrROS_Hall] | 3.79 ± 0.23
20 | SAGGSGMTTTFSKEVSSKEEAEKIFKRGFPDLNAKVTKFDPKKGTVEIELTFPDGKKSKATAPIKKSAGGSA [r2_201_JUSTAS] | 0.0996 ± 0.5
21 | SAGGSAGGSAGGSLKVEVTLDPETNELTVRTTLTLPPPPPPPPTTTTTTTTTLAPGETASAGGSAGGSAGGS [r10_86_TrROS_Hall] | 0.776 ± 0.22

Experiment: folding stability dG unfold (combined trypsin and chymotrypsin); higher = more stable
Outline: as §1

Row | Sequence | folding stability dG unfold [kcal/mol]
22 | SAGGSAGGSATIWIPVSQIEEFLKQMPPDRIKEVKITYDPEDGWIPVKIPGGREIMIWVPKSAGGSAGGSAG [r3_291_TrROS] | 1.06 ± 0.076
23 | SAGGSAGGSAGEFEPVPVLTLPGLDDREVRVVLFKDPPLVLLEVEGAPYVLPAEELLRLASAGGSAGGSAGG [r11_370_TrMRF] | 0.856 ± 0.12
24 | SAGGSMIPLDNIDTIEIYENPKEGKYEAKIYFPSNGKVYVFPEGLLPEIIESTPKIKEIKVIPVPESAGGSA [r2_159_TrMRF] | -0.0295 ± 0.25
25 | SAGGMVLVIVSDLKPGELNEIIEKLKKEGLEVKLFLPNGEEIDADPNIEDLPEDVPVVLLVRHPDKSSAGGS [r16_31_TrMRF] | 2.35 ± 0.053
26 | SAGGSAGGSKPIKTKATIPLPNGKTITADVEIVVLPDGNILLRVPSGKVILVPPNYPVTFEDASAGGSAGGS [r20_227_TrMRF] | 1.67 ± 0.036
27 | SAGGSAGGSAGMKTTYDPDTNKLSITLPNGTVATYYLGTGVIEIPDEVSSKEDIKVEKAASAGGSAGGSAGG [r17_174_JUSTAS] | 0.79 ± 0.15
28 | STITIEVETPEELEKALVEAEKLVEKGKDVKIEIFVRNENGETLKLTFDIKQLPDGIPVLEIEVEPVPPPSA [r9_1023_TrMRF] | 2.74 ± 0.13
29 | SAGGMKKYKVTVTIELTPPDGTTTTVTVTIDVDGDEKKALEEAEKVAEELKAAGYPVTIKEIKIYEESAGGS [r16_525_JUSTAS] | 4.69 ± 0.78
30 | SAGGGEIKIEIYRHPDTIMIRVKWDNPQQLKEEIIELFREENGFKPKEVSVQYNPNGYLYIMFEFKPKSAGG [r13_158_TrROS] | 3.64 ± 0.21
31 | SAGKPVKVTLNVVRLPGTGELVVFAEITYPDGSTAYAVARADLATGTVHVKLFDPNGKLLAELTVTLKPSAG [r14_524_TrMRF] | 4.4 ± 0.096
32 | SAGGSAETAIDLGPPNTTGVLEIEYFDENGNTRRATATFDPNPATISFNEPVEIPPNARIEIKPTSSAGGSA [r15_198_TrMRF] | 0.545 ± 0.14
33 | SAGGNMWMVRVKIDDGKTFMITSPEDIEEYLKKKLGPNYKIKEVEWHRMPPPNGPPMPMHEFEIEVPSAGGS [r16_408_TrROS] | 1.76 ± 0.16
34 | SAGGSAGGSAGGMKLVTLPDGKTYPFTSLEEFKEALLKETGKPVDLKNPVIYPVPPGLSSAGGSAGGSAGGS [r10_62_JUSTAS] | 0.99 ± 0.22
35 | SEEELENLPNVVRLELEVEIDGVRVRIETEFRLNEDGSLEVRTRIEVEPLPPPVEVVLDENGELVEVRVESA [r9_456_TrROS_Hall] | 3.12 ± 0.14
36 | SAGGSVEEIAERLAKELAPPDERVEVEVEEIVTDPVVGKIKEVKIKATIYPPDGTTRTVEYTIPYDELSAGG [r13_215_JUSTAS] | 0.612 ± 0.056
37 | SKGTFMAMMPLDEIKEIVENFAKQGWNIKIKPKSIQPFPFPHNDEDGEPEPYPMVMVEVEIKIVPPGDPPSA [r9_991_TrROS] | 1.64 ± 0.097
38 | SAGGSAMKITLKTKDGKEIEIEVEEKTNENGEKYLVLKIKDKKTNKEYTIVMSKEELEELLKKLLSSAGGSA [r15_92_TrROS_Hall] | 5.55 ± 0.17
39 | SAGGSAGGSAGGMKVLVIFEDNKIPRVVSEEELKKIPLPFKIIPLGPDPEEAKKILEKSSAGGSAGGSAGGS [r10_419_TrMRF] | 0.434 ± 0.27
40 | SAGGSAGGSAMNRYRILLLDPENGKPLVFELPGNMTPEEAKEAAEELAERFGVTVVAIEGFPSAGGSAGGSA [r18_322_TrMRF] | 4.11 ± 0.057
41 | SAGGSAGGMVLVLRFPLGEPALIALYDPETGEVHVYDPGTRELLGTFPLPIEDFLELGAEAEPVSAGGSAGG [r6_831_TrMRF] | 1.84 ± 0.12
42 | SMDLRLEVVSVEIEPEGRTLRIRVRVRLTALDPDDPDLPVPVLEVEVEIPIPLPEPLPLPVPNDPRALAASA [r9_357_TrMRF] | 2.25 ± 0.21

Row | Sequence | folding stability dG unfold [kcal/mol]
43 | SIVIRLPDGKPLMIQLTMYYPPDNDKIEIPVEIYDGGKPRTFEHEIPPGDNKPVTFSLHIPLPPGAYIKISA [r9_973_TrROS] | 2.38 ± 0.23
44 | SAGGSAGGSNKLVKELAKDPNIKSIFVDTKNKKVYILTDNYLIVIDKNGKIEKIEPISPEKLKSAGGSAGGS [r12_895_TrMRF] | 1.16 ± 0.17
45 | SASKKPKLIIVDIVIKPEELKKMKPEELIEKILKELGIPKEKDVKIDLFLEPVELDGEEYYIIPALITNSAG [r14_334_TrMRF] | 1.24 ± 0.28
46 | SDKIIIPIYLPPGQDPDEIKNEIKWFARELWDKLGLPPNVKVEIEPRPYPEGYRRYMITIRLGGKEITIWSA [r9_776_TrROS] | 3.34 ± 0.22
47 | SAGGSAGGSANRKVIQFDSPEEILEAIDEAPEDDPVIIEWHDPDGGEPWWIKFDGDEIELIMSAGGSAGGSA [r18_407_TrROS] | -0.511 ± 0.45
48 | SAGGSAGGSALPTSPTYAVVKVPDKYYIVKTKVGDIIFIPDENGIPVPVKVEPFYPIAPEALSAGGSAGGSA [r18_244_TrMRF] | -0.258 ± 0.18
49 | SAGGSAGGSMYKVEIEIETSPEGGITIKVTIIPPDGSVIEGNLTPEEVAKRFGFPPPEILELLSAGGSAGGS [r20_235_JUSTAS] | 2.48 ± 0.14
50 | SAGGSAGGSAGLAEKLRDEIRESIKGPDGLEVPDDVELLSIDVPEDSAFVEVRFPADLPVSAGGSAGGSAGG [r17_519_TrMRF] | 0.363 ± 0.089
51 | SAGGMKIVSVEFDEETGEVYVKIEVPTPEELEALKKLPGEVRIVDKETGEVKVIKVKSIEELLELLKKSAGG [r13_604_TrROS_Hall] | 2.05 ± 0.15
52 | SAGGSAGGKEVKIEIYDSDDGILLVEVPDLDDAVEAVEKLGVELELVPYDPEKGRLLLRLRIPGSAGGSAGG [r6_510_TrMRF] | 0.64 ± 0.16
53 | SAGGSAGGSAGGEIKVEVVPVDGKLRVKVTLEDGEKIEIEVPENTTLDELKKLAEELAKKSAGGSAGGSAGG [r7_265_TrROS_Hall] | 1.94 ± 0.11
54 | SAGGSAGGMKATFHPGPGRFPLGDKEYEVDLIYVTVTLPNGVPRVFVLTPDEVEELLPDLELEGSAGGSAGG [r6_561_TrMRF] | 0.794 ± 0.098
55 | SAGGSSLTTPDGVKVEVYENPENNTIYVFEKKPDGTYTLKTLTKEGDKVTEVSTKTIKSNEKEKLLSAGGSA [r2_336_JUSTAS] | 1.52 ± 0.069
56 | SAGGMMYLIKVDTKEELKELAEAPGAKIVEEKEVNGKLYLLIEFPPGVTKIKIDVETRKIVEIEKLPSAGGS [r8_251_TrROS_Hall] | 1.37 ± 0.26
57 | SAGGSAGGSKNGEPPPVPTITMRFKDPDKIRKLNKKAGLPIEHDPGNGYITFPYRQIDKILKASAGGSAGGS [r12_325_TrROS] | > 6
58 | SAGGSSPASVRTSQTTVTDPATGRTRSVTVTTLPDGTTVSTFDSPGGSLVTTTTTPDGTTTTVTADSAGGSA [r2_109_JUSTAS] | 1.05 ± 0.066
59 | SAGGPVETPGPHPLRPVPVVEPKKVVVTYPDLSPEEAAALAAELEAQGATTSFDPATGTLTVTLTGLSAGGS [r16_765_JUSTAS] | 2.58 ± 0.072
60 | SAGGSAGGSAGGITPEYVERARKEAQDQYPPGKEREIIIRNPDNGKEITIRYTPDKIEIMSAGGSAGGSAGG [r7_45_TrROS] | -0.147 ± 0.24
61 | SAGGSAGGSAKIRLIFKTEEEARKAIEALLPEGAKAKIKVEKRKDGKKYVVVEIEFKEEEESAGGSAGGSAG [r3_87_TrROS_Hall] | 3.57 ± 0.21
62 | SAGGSGMTTTFSKEVSSKEEAEKIFKRGFPDLNAKVTKFDPKKGTVEIELTFPDGKKSKATAPIKKSAGGSA [r2_201_JUSTAS] | -0.225 ± 0.37
63 | SAGGSAGGSAGGSLKVEVTLDPETNELTVRTTLTLPPPPPPPPTTTTTTTTTLAPGETASAGGSAGGSAGGS [r10_86_TrROS_Hall] | 0.0927 ± 0.38
